Tested on: MS2 coat protein
Assay: apparent KD of MS2 coat protein; designed switch direction (-1 OFF switch, 1 ON switch): -1; higher = weaker reporter binding
How it was run: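 The reported apparent KD is a per-design median over clusters, from curve fits of normalised cluster fluorescence. Protein titrations used SNAP-549-labelled MS2 coat protein, doubled from 0.7 or 1.5 nM to 3 µM, in Tris-HCl pH 7.5 buffer with KCl, MgCl2, BSA, DTT, tRNA and Tween-20, with no input, 200 uM small-molecule ligand, or an oligonucleotide input. The RNA switches were transcribed on Illumina chips by stalled E. coli RNA polymerase.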

[1] = Eterna round: R95, input ligand: FMN 200 uM
[2] = Eterna round: R95, input ligand: microRNA oligo, concentration not stated
[3] = Eterna round: R95, input ligand: none
[4] = input ligand: microRNA oligo, concentration not stated

UAAAUGUCAGGAUAUUGUUAAUUUAGUUGUUUGUAUUAGUUCGAGAAGGGACAUGAGGAUCACCCAUGUUAAAU [Ex4 #53] (Eterna round: R97, puzzle: Exclusion 4)
apparent KD of MS2 coat protein (input ligand: FMN 200 uM): 45.9 nM | apparent KD of MS2 coat protein (input ligand: none): 30.4 nM

AAAACGGCAGGAUAUCGGAACAAUGACAUGAGGAUCACCCAUGUGAUCGUUUCACUUGGCCGAGAAGGGCCAAAAU [Xeinbelele] (puzzle: Exclusion 5)
apparent KD of MS2 coat protein [1]: 54.6 nM | apparent KD of MS2 coat protein [2]: 18.6 nM | apparent KD of MS2 coat protein [3]: 17.4 nM

AGUACUAACACGUAAGUGUUAGUACAAUAAGCUUGUGAAACAUGAGGAUCACCCAUGUCCUCAUAAGCUCGUCUUAU [salish99_TOv2_r3_025] (puzzle: Sensor v3, turn-off variant 2)
apparent KD of MS2 coat protein [1]: 17.9 nM | apparent KD of MS2 coat protein [2]: 659 nM | apparent KD of MS2 coat protein [3]: 15.4 nM

UUUUUAGAUGAAGGAUAUACUUAACAUGAGGAUCACCCAUGUGGUGUUGUGAGUGAGUGAGUUUAGUAGAAGGUCAAUUCUUUU [JMF's solution 87] (Eterna round: R96, puzzle: Exclusion NG 2)
apparent KD of MS2 coat protein (input ligand: FMN 200 uM): 566 nM | apparent KD of MS2 coat protein [4]: 311 nM | apparent KD of MS2 coat protein (input ligand: none): 346 nM

UAUACUAGAUAGGAUAUACUAUAUAUAUUUUUCGUAGAAGGAUCUACAUGAGGAUCACCCAUGUUAACAGCAGU [JR_E6_Sub007] (puzzle: Exclusion 6)
apparent KD of MS2 coat protein [1]: 45 nM | apparent KD of MS2 coat protein [2]: 42.9 nM | apparent KD of MS2 coat protein [3]: 41.5 nM

AGGCGCUCUGUUAGGAUAUUUGCUGACUACUAGGCGGAGAAGGAACAUGAGGAUCACCCAUGUAUACGAUCCGC [BmEX4 C.16] (Eterna round: R97, puzzle: Brourd's mod of Exclusion 4)
apparent KD of MS2 coat protein (input ligand: FMN 200 uM): 13.7 nM | apparent KD of MS2 coat protein (input ligand: none): 12.1 nM

UAAUUUUUAGUAAGGAUAUCGGUCCCAAGGGACAACGAGAAGGUACAUGAGGAUCACCCAUGUGACGAAAGAAU [Mod of Zala 9 - Jieux - Brourd's Mod of Exclusion 4] (Eterna round: R97, puzzle: Brourd's mod of Exclusion 4)
apparent KD of MS2 coat protein (input ligand: FMN 200 uM): 35.6 nM | apparent KD of MS2 coat protein (input ligand: none): 15.5 nM

AAACGGCGGAUCGUGGCUUUUUGCUCGUCUUGUGCUUCGACAUGAGGAUCACCCAUGUGGUGGUGAUCCGUUGUAAA [Grok-var2-16 mod JAL] (Eterna round: R96, puzzle: Sensor v3, turn-off variant 2)
apparent KD of MS2 coat protein (input ligand: FMN 200 uM): 537 nM | apparent KD of MS2 coat protein [4]: 12.4 nM | apparent KD of MS2 coat protein (input ligand: none): 84 nM

GCGCAAACGCCAAAAGGCGAAACAACAUGAGGAUCACCCAUGUAGGAUAUCGAUUGCUUUGCAGUCGAGAAGGACGUAAUGCGC [JL ENG3 3.80 Mod 5] (Eterna round: R96, puzzle: Exclusion NG 3)
apparent KD of MS2 coat protein (input ligand: FMN 200 uM): 12.7 nM | apparent KD of MS2 coat protein [4]: 14.9 nM | apparent KD of MS2 coat protein (input ligand: none): 22.1 nM

CCUCCACAUGAGGAUCACCCAUGUCAGGAUAUCGUGUGUUUUUUUUCGGUCUUGCGUGCGAGAAGGGACGUCUU (puzzle: Exclusion 1)
apparent KD of MS2 coat protein [2]: 32.5 nM

GAUAGGGCAGGAUAUCGAGAUCCGCACAUGAGGAUCACCCAUGUUCGGUCGAAAGACCGACGAGAAGGGCCGUAUC [Omei Ex5 E6] (Eterna round: R97, puzzle: Exclusion 5)
apparent KD of MS2 coat protein (input ligand: FMN 200 uM): 698 nM | apparent KD of MS2 coat protein (input ligand: none): 536 nM

AUUGUUUAUGUAGGAUAUGCCUGGCGUGCCUUUGCAGAAGGACAUGAGGAUCACCCAUGUAUUGCGGUCUGCGUUCAGAUCGCC [salish99_ExNG1_r4_035] (Eterna round: R96, puzzle: Exclusion NG 1)
apparent KD of MS2 coat protein (input ligand: FMN 200 uM): 27.6 nM | apparent KD of MS2 coat protein [4]: 16.7 nM | apparent KD of MS2 coat protein (input ligand: none): 24.1 nM
